{"source": "patent US20250074971A1", "key": {"[1]": {"molecular_target": "Senecavirus A (SVA) particles (Senecavirus A)", "experiment": "ELISA, coated SVA, Fc control"}, "[2]": {"molecular_target": "Foot-and-Mouth Disease Virus (FMDV) particles (Foot-and-Mouth Disease Virus)", "experiment": "ELISA, coated FMDV, Fc control"}}, "data": [{"substance": "Fc", "values": [{"measurement": "A450", "setting": "[1]", "value": 0.218, "unit": "A450"}, {"measurement": "A450", "setting": "[2]", "value": 0.054, "unit": "A450"}]}]}
